# Results: the supplement of paper PMC9170038
# Test system: MS2 coat protein
# Assay: apparent KD of MS2 coat protein; designed switch direction (-1 OFF switch, 1 ON switch): -1; higher = weaker reporter binding
# Settings: Eterna round: R98; input ligand: FMN 200 uM
# Experimental: (§1)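 RNA-MaP: designed FMN/MS2 RNA switches (84 nt design region) are transcribed on-chip within common flanks and titrated with SNAP-549-labelled MS2 coat protein (about 1-3000 nM) in 100 mM Tris pH 7.5, 80 mM KCl, 4 mM MgCl2, without or with 200 uM FMN. Median apparent KD per design; activation ratio = KD,OFF / KD,ON.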
row,Sequence,apparent KD of MS2 coat protein
1,GGUUGUUACGCAGGAUAUUGCCAACAGGCAGUAGGAUAUCCGAAAGGAGAAGGAUUGCCAACAGGCGAGAAGGGCGGGUUAACC [pwkr exNG2 2xF7 2FMN.10.6],50.6 nM
2,UAUAUAAUAAGAGCUGGAAAACUCACAUGAGGAUCACCCAUGUAGGAUAUCAGCACGAUAAGUGCUGAGAAGGACAACCAGCUC [Denovo 73],17 nM
3,GUAUGACAAAGUCAUACCGCUUUGACAUGAGGAUCACCCAUGUAGGAUAUAUUAAUCAAAGAUUAAUAGAAGGACAUGUUUCUG [Ex NG2 #68],175 nM
4,GGAUGACAAAGUCAUCCUUAACGAACAUGAGGAUCACCCAUGUAGGAUAUGCUACACAAAGUGUAGCAGAAGGACAUGUGCCUU [Mat - Exclusion NG 3 - JL Mod - D88],294 nM
5,ACAUGGAAGCGAGGAUAUGCGGCGGAAACGAACGCAGAAGGCGAAAAAAAAACUCGCAAAAACAUGAGGAUCACCCAUGUAAAA [AK-NGROCr2-ExNG1-4],34.8 nM
6,GCGUAAUUGAUCCUAUUUACCAACAUGAGGAUCACCCAUGUGCAGGAUAUGCUAAAGAUAGAUAAGCAGAAGGGCAAAUACCGC [JR_ExcNG3_Sub003],252 nM
7,AAAAUAAAGGCAGGAUAUACAUGAAUAAAUAAAAUAAAAUAAAAUAAAACAUGAGGAUCACCCAUGUAGAAGGGCCAAAAUAAA [LRO021_Exclusion NG 2],178 nM
8,AUGCCGUGCAGAGCGCGACGGCGAACAUGAGGAUCACCCAUGUAGGAUAUACUACACAAAGUGUAGUAGAAGGACGUGCAACAA [Ex NG2 #97],38.1 nM
9,AUGACAGGCAGAGCGCAACGGCGAACAUGAGGAUCACCCAUGUAGGAUAUGCUACACAAAGUGUAGCAGAAGGACAUGCGACGC [Ex NG2 #85],117 nM
10,AAAAUAUAGGCAGGAUAUACAUGAAUAUAUAAUAUAAUAUAUAAUAUAACAUGAGGAUCACCCAUGUAGAAGGGCCAUAAUAAA [LRO028_Exclusion NG 2],72.7 nM
11,CUGGUGAUGUAAGGAUAUGCUGAGGAAUACUCAGCAGAAGGUACAUGAGGAUCACCCAUGUAAAUGAAAGAUAAUAAACACCAG [Excusion NG 1/16-B1],29.1 nM

# Same assay, conditions: Eterna round: R98; input ligand: none
row,Sequence,apparent KD of MS2 coat protein
1,GGUUGUUACGCAGGAUAUUGCCAACAGGCAGUAGGAUAUCCGAAAGGAGAAGGAUUGCCAACAGGCGAGAAGGGCGGGUUAACC [pwkr exNG2 2xF7 2FMN.10.6],33.3 nM
2,UAUAUAAUAAGAGCUGGAAAACUCACAUGAGGAUCACCCAUGUAGGAUAUCAGCACGAUAAGUGCUGAGAAGGACAACCAGCUC [Denovo 73],15.2 nM
3,GUAUGACAAAGUCAUACCGCUUUGACAUGAGGAUCACCCAUGUAGGAUAUAUUAAUCAAAGAUUAAUAGAAGGACAUGUUUCUG [Ex NG2 #68],94.6 nM
4,GGAUGACAAAGUCAUCCUUAACGAACAUGAGGAUCACCCAUGUAGGAUAUGCUACACAAAGUGUAGCAGAAGGACAUGUGCCUU [Mat - Exclusion NG 3 - JL Mod - D88],32.9 nM
5,ACAUGGAAGCGAGGAUAUGCGGCGGAAACGAACGCAGAAGGCGAAAAAAAAACUCGCAAAAACAUGAGGAUCACCCAUGUAAAA [AK-NGROCr2-ExNG1-4],28.5 nM
6,GCGUAAUUGAUCCUAUUUACCAACAUGAGGAUCACCCAUGUGCAGGAUAUGCUAAAGAUAGAUAAGCAGAAGGGCAAAUACCGC [JR_ExcNG3_Sub003],67 nM
7,AAAAUAAAGGCAGGAUAUACAUGAAUAAAUAAAAUAAAAUAAAAUAAAACAUGAGGAUCACCCAUGUAGAAGGGCCAAAAUAAA [LRO021_Exclusion NG 2],71.5 nM
8,AUGCCGUGCAGAGCGCGACGGCGAACAUGAGGAUCACCCAUGUAGGAUAUACUACACAAAGUGUAGUAGAAGGACGUGCAACAA [Ex NG2 #97],29.8 nM
9,AUGACAGGCAGAGCGCAACGGCGAACAUGAGGAUCACCCAUGUAGGAUAUGCUACACAAAGUGUAGCAGAAGGACAUGCGACGC [Ex NG2 #85],25.7 nM
10,AAAAUAUAGGCAGGAUAUACAUGAAUAUAUAAUAUAAUAUAUAAUAUAACAUGAGGAUCACCCAUGUAGAAGGGCCAUAAUAAA [LRO028_Exclusion NG 2],43.7 nM
11,CUGGUGAUGUAAGGAUAUGCUGAGGAAUACUCAGCAGAAGGUACAUGAGGAUCACCCAUGUAAAUGAAAGAUAAUAAACACCAG [Excusion NG 1/16-B1],14.5 nM

# Test system: MS2 coat protein
# Assay: apparent KD of MS2 coat protein; designed switch direction (-1 OFF switch, 1 ON switch): 1; higher = weaker reporter binding
# Settings: Eterna round: R98; input ligand: FMN 200 uM
# Experimental: as §1
row,Sequence,apparent KD of MS2 coat protein
1,CGCUGUAAUGCAGGAUAUGCAUUGGAUUACAAUGCAGAAGGGCGAUUACAUGAGGAUCACCCAUGUAUAAACAGUGAAGAAGAG [Hyphema mod 5],26.9 nM
2,CUAAUAUAGUGAGGAUAUGCACAGGAUCACCGUGUAGAAGGCAUCAGGUAGAAGGUGCAGAGGAUCACCCUGUAAGGAUAUACA [pwkr2 ssNG1 DX.5],102 nM
3,GCCAUCGUAUGAGGAUAUGGCACCGUUUCGGUGCCAGAAGGCAUGUCUUUUGACAUGAGGAUCACCCAUGUAGUUAAGAUGGCA [Pyrimidine booster 4],147 nM
4,AUCAAUCACAUAGGAUAUAGAAUAUUAUAUUUUUACAUGAGGAUCACCCAUGUUUUAUUGGGAUUCUAGAAGGAUGAGUAAUAA [JR_SSNG2_Sub055Nu],96.9 nM
5,AAAACAUGAGGAUCACCCAUGUAAAGAUCGGUUAAUAAAAGUGAGGAUAUACAAAAUUUUAUAUAGUAGAAGGCACUGGGUACA [JR_SSNG3_Sub002],29.7 nM
6,CAACAAUGGUGAGGAUAUGCAAAGGAUCACCUUGUAGAAGGCAUCAGGUAGAAGGUGCAGAGGAUCACCCUGUAAGGAUAUAUC [pwkr2 ssNG1 DX.21],69.9 nM
7,CUAGCAUACCGAGGAUAUUCAUAUAAUAAAUAAACAUGAGGAUCACCCAUGUGGCGAAAGCCUAGGGAGAAGGCGGAAUGCUAU [salish99_SSNG2_r2_111],23.8 nM
8,CAUGUCCACACAGGAUAUGCUGGACUUUGUCCAGCAGAAGGGUGAACAUGAGGAUCACCCAUGUAAAGGACAUGUAUAUUUAAU [Denovo 16],93.3 nM
9,GCCGUAAUAGCAGGAUAUGCUCCGGUUGCUCAUACAUGAGGAUCACCCAUGUCACGUGCGGUGGUGCAGAAGGGUUGAAGCGAU [Ausaso],122 nM
10,UUUGGGAGCACAGGAUAUGGCACCUCGACGGCGCCAGAAGGGUGAUUCUGUUGGUGGCCACAUGAGGAUCACCCAUGUGCCUCC [Inerinusce],44.7 nM
11,CUCGUUGUCACAGGAUAUGCCGCCGGACAUGAGGAUCACCCAUGUACCCGCUUGAGAAAACUGCGGUAGAAGGGUGACUUAUAA [Erriisin],46 nM
12,AGAACAUGAGGAUCACCCAUGUGAAGGUCGGCGUAUAAGGGUGAGGAUAUGCUUAAAAUAAGGAAGCAGAAGGUGCUUGGUGCG [SameState #79 NG3],102 nM
13,GGUCCAUCAUGAGGAUAUGGCACCUUAUUUGUGCCAGAAGGCAUGUCAAUAGACAUGAGGAUCACCCAUGUAAUAAAUUGGACC [EliMod 3 - Jieux - Same State NG 1],54.1 nM
14,AAAUAAAAUAUAGGAUAUGGAAACAUGAGGAUCACCCAUGUAAAAUAAGAUAAAUAAUAAUAUAACCAGAAGGAUAAAAUAUAA [LRO003_SS NG 2],53.3 nM
15,UUAUAAAAUAUAGGAUAUGGAAACAUGAGGAUCACCCAUGUAUGAUAAGAUAAAUUAUGAUAUAGCCAGAAGGAUACAAUAUAA [LRO010_SS NG 2],35.4 nM
16,GUAGCAUACCGAGGAUAUUCAUACUGGAAACAGACAUGAGGAUCACCCAUGUGGCGAAAGCCUUGGGAGAAGGCGGAAUGCUAC [EliMod 9 - Jieux - Same State NG 2],42.4 nM
17,AAGCAAACAUGAGGAUCACCCAUGUAACUGCUUUUGGCGACACAGGAUAUACAGCGACAUUGGCGGUAGAAGGGUGAUUGAAGU [Araisleen],51.1 nM
18,GCUUGCGACGCAGGAUAUGGGUGCCUGAACACGAGGAUCACCCGUGUAGAGGAAGCGAAAAGCUCUCAGAAGGGCGUCGCAGGC [United States 6 - Jieux - Same State NG 2],19.8 nM
19,ACCGGCACUUACAUGAGGAUCACCCAUGUGUGCAAUCGGACACAGGAUAUCCAUGGUAAGUAUCGGGAGAAGGGUGGAAAGAAA [Reustion],258 nM
20,GGUCUGAUAUGAGGAUAUGCUCAGGAUAACUGAGCAGAAGGCAUGUGAAAACAUGAGGAUCACCCAUGUAUGAUCUACAGACCA [Same State NG1 - WT Aptamer 4D],22.7 nM

# Same assay, conditions: Eterna round: R98; input ligand: none
row,Sequence,apparent KD of MS2 coat protein
1,CGCUGUAAUGCAGGAUAUGCAUUGGAUUACAAUGCAGAAGGGCGAUUACAUGAGGAUCACCCAUGUAUAAACAGUGAAGAAGAG [Hyphema mod 5],51.6 nM
2,CUAAUAUAGUGAGGAUAUGCACAGGAUCACCGUGUAGAAGGCAUCAGGUAGAAGGUGCAGAGGAUCACCCUGUAAGGAUAUACA [pwkr2 ssNG1 DX.5],385 nM
3,GCCAUCGUAUGAGGAUAUGGCACCGUUUCGGUGCCAGAAGGCAUGUCUUUUGACAUGAGGAUCACCCAUGUAGUUAAGAUGGCA [Pyrimidine booster 4],637 nM
4,AUCAAUCACAUAGGAUAUAGAAUAUUAUAUUUUUACAUGAGGAUCACCCAUGUUUUAUUGGGAUUCUAGAAGGAUGAGUAAUAA [JR_SSNG2_Sub055Nu],147 nM
5,AAAACAUGAGGAUCACCCAUGUAAAGAUCGGUUAAUAAAAGUGAGGAUAUACAAAAUUUUAUAUAGUAGAAGGCACUGGGUACA [JR_SSNG3_Sub002],28.3 nM
6,CAACAAUGGUGAGGAUAUGCAAAGGAUCACCUUGUAGAAGGCAUCAGGUAGAAGGUGCAGAGGAUCACCCUGUAAGGAUAUAUC [pwkr2 ssNG1 DX.21],176 nM
7,CUAGCAUACCGAGGAUAUUCAUAUAAUAAAUAAACAUGAGGAUCACCCAUGUGGCGAAAGCCUAGGGAGAAGGCGGAAUGCUAU [salish99_SSNG2_r2_111],210 nM
8,CAUGUCCACACAGGAUAUGCUGGACUUUGUCCAGCAGAAGGGUGAACAUGAGGAUCACCCAUGUAAAGGACAUGUAUAUUUAAU [Denovo 16],715 nM
9,GCCGUAAUAGCAGGAUAUGCUCCGGUUGCUCAUACAUGAGGAUCACCCAUGUCACGUGCGGUGGUGCAGAAGGGUUGAAGCGAU [Ausaso],465 nM
10,UUUGGGAGCACAGGAUAUGGCACCUCGACGGCGCCAGAAGGGUGAUUCUGUUGGUGGCCACAUGAGGAUCACCCAUGUGCCUCC [Inerinusce],76 nM
11,CUCGUUGUCACAGGAUAUGCCGCCGGACAUGAGGAUCACCCAUGUACCCGCUUGAGAAAACUGCGGUAGAAGGGUGACUUAUAA [Erriisin],110 nM
12,AGAACAUGAGGAUCACCCAUGUGAAGGUCGGCGUAUAAGGGUGAGGAUAUGCUUAAAAUAAGGAAGCAGAAGGUGCUUGGUGCG [SameState #79 NG3],137 nM
13,GGUCCAUCAUGAGGAUAUGGCACCUUAUUUGUGCCAGAAGGCAUGUCAAUAGACAUGAGGAUCACCCAUGUAAUAAAUUGGACC [EliMod 3 - Jieux - Same State NG 1],642 nM
14,AAAUAAAAUAUAGGAUAUGGAAACAUGAGGAUCACCCAUGUAAAAUAAGAUAAAUAAUAAUAUAACCAGAAGGAUAAAAUAUAA [LRO003_SS NG 2],30 nM
15,UUAUAAAAUAUAGGAUAUGGAAACAUGAGGAUCACCCAUGUAUGAUAAGAUAAAUUAUGAUAUAGCCAGAAGGAUACAAUAUAA [LRO010_SS NG 2],32.9 nM
16,GUAGCAUACCGAGGAUAUUCAUACUGGAAACAGACAUGAGGAUCACCCAUGUGGCGAAAGCCUUGGGAGAAGGCGGAAUGCUAC [EliMod 9 - Jieux - Same State NG 2],545 nM
17,AAGCAAACAUGAGGAUCACCCAUGUAACUGCUUUUGGCGACACAGGAUAUACAGCGACAUUGGCGGUAGAAGGGUGAUUGAAGU [Araisleen],22.2 nM
18,GCUUGCGACGCAGGAUAUGGGUGCCUGAACACGAGGAUCACCCGUGUAGAGGAAGCGAAAAGCUCUCAGAAGGGCGUCGCAGGC [United States 6 - Jieux - Same State NG 2],50.5 nM
19,ACCGGCACUUACAUGAGGAUCACCCAUGUGUGCAAUCGGACACAGGAUAUCCAUGGUAAGUAUCGGGAGAAGGGUGGAAAGAAA [Reustion],142 nM
20,GGUCUGAUAUGAGGAUAUGCUCAGGAUAACUGAGCAGAAGGCAUGUGAAAACAUGAGGAUCACCCAUGUAUGAUCUACAGACCA [Same State NG1 - WT Aptamer 4D],55.6 nM
